Positions of bridges follow the written chain, without caps; N, C: chain ends. No end group written: not given here. *: point of attachment. NHNH2 = NN*
Assays:
[1] = target: T1, factor VIII-like polypeptide (REFACTO®) (Homo sapiens, UniProt P00451); test: Affinity chromatography capture and elution of REFACTO® on immobilized peptide columns; format: binding; settings: bound material eluted in the presence of ethylene glycol
T1 construct: amino acids 1-743 and 1638 through 2332 of human factor VIII; purchased Genetics Institute, Inc. (Cambridge, Mass.)
T1 sequence (P00451 20-762): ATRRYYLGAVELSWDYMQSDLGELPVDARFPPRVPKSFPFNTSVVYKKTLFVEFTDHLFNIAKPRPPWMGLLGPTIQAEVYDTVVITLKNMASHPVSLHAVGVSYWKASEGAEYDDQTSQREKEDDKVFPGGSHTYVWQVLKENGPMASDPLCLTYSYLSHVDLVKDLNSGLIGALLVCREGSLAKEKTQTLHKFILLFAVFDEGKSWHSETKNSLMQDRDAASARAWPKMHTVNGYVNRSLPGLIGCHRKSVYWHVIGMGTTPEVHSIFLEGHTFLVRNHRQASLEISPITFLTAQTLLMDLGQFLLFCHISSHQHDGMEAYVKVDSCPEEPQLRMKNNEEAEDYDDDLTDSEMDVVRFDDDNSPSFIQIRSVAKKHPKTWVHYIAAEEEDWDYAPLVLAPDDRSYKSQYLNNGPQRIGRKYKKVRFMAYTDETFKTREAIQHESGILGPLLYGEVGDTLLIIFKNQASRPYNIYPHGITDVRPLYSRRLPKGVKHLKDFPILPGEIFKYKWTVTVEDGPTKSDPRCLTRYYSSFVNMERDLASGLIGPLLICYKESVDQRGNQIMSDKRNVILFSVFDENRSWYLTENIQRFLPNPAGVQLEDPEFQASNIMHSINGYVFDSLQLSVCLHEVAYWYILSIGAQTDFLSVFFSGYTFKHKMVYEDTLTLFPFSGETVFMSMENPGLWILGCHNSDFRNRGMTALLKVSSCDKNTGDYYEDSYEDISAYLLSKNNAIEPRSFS
T1 sequence (P00451 1657-2351): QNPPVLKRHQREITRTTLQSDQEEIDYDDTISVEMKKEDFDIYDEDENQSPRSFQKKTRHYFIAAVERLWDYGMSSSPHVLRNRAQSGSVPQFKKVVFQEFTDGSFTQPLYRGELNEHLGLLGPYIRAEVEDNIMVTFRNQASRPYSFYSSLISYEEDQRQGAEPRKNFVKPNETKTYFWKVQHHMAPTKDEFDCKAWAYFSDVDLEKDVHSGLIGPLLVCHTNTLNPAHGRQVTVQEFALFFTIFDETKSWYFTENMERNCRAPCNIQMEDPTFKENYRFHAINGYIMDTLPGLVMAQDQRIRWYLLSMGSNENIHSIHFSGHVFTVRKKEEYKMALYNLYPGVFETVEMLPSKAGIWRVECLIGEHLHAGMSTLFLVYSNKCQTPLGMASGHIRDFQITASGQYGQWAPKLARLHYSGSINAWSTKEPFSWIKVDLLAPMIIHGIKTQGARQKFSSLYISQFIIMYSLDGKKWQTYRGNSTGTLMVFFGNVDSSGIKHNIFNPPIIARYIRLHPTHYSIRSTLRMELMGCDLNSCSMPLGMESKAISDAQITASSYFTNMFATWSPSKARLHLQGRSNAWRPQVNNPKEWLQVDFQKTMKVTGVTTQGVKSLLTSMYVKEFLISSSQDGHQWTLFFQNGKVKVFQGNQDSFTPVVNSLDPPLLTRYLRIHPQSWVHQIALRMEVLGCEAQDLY
Method: The candidate ligands were immobilized onto a formyl-substituted ethylene glycol-methacrylate chromatographic resin (Toyopearl Formyl 650-M, pore size of ˜1000 Å; TosoHaas, Montgomeryville, Pa.). The hydrazide-containing peptides were immobilized by facilitating hydrazone bond formation, the GI-1 and -2 peptides were immobilized via reductive amination using NaCNBH3. The amount of polypeptide immobilized on the solid support was determined by quantifying the amount of free polypeptide remaining in solution. The amount of ligand immobilized per ml of resin was in the range of 0.7-1.5 μmol for the hydrazine-immobilized peptides.
The nine peptides were evaluated by affinity chromatography for their ability to capture the REFACTO® described in Example I, under specific binding and release conditions.
The factor VIII-like polypeptide (REFACTO®) was diluted in SP Buffer to a concentration of 150 μg/ml. The affinity resins (˜350 μl) were each packed into glass columns, and approximately 150 μg of the factor VIII target was applied to the prepared affinity columns at a flow rate of 200 μl/minute (linear velocity of 170 cm/hour). […] Fractions were collected and the mass and activity of recovered factor VIII-like polypeptide was determined by reversed-phase HPLC and by enzymatic assay.
For the mass determination, a standard curve with REFACTO® (0-200 μg) was generated and the amount present in each fraction was calculated according to techniques well known in the art. Reversed-phase HPLC in the presence of 20 mM EDTA was used to disrupt the REFACTO® molecule into its component subunits, which were eluted with a gradient of acetonitrile/0.01% TFA. The activity assay was a Factor IX-, X-based assay. The results for each affinity resin are set forth below (Table 6).

[2] = Peptide stability, Asp-Pro changed to Glu-Pro; format: physicochemical; settings: DP changed to EP versus GI-2; Asp-Pro hydrolysis particularly at low pH
Text: Binding polypeptides were synthesized with the amino terminal residue acetylated and the carboxyl terminal residue as a free acid. The two cysteine residues are oxidized and form a disulfide bond which creates a cyclic peptide structure. The residues contained within the cyclic structure are underlined. The peptide sequence is identical to the sequence GI-2 shown in Table 4 except that the aspartic acid residue at position 19 has been changed to glutamic acid (bold).

| Substance | capture of the factor VIII target by the affinity resin (in words) [1] | peptide stability (in words) [2] |
| --- | --- | --- |
| Ac-AEGTGDRLCSWVSPCSADPEGGGSK (cysteine pairing not given here) [GI-1] | inability of the CS-455 and GI-1 resins to capture the target |  |
| AEGTGDHPCGSWLRPCLHDPGPEGGGS-NHNH2 (disulfide 9-16 (inferred)) [CS-453] | captured virtually all of the factor VIII target applied |  |
| AEGTGDFCWVFPFQHCADPGPEGGGS-NHNH2 (disulfide 8-16 (inferred)) [CS-459] | captured virtually all of the factor VIII target applied |  |
| AEGTGDFHCIGVWFCLHDPGPEGGGS-NHNH2 (disulfide 9-15 (inferred)) [CS-455] | inability of the CS-455 and GI-1 resins to capture the target |  |
| Acetyl-AEGTGDHRCGSWLHPCLAEPGEGGGGSK (Ac-AEGTGDHRCGSWLHPCLAEPGEGGGGSK; disulfide 9-16 (inferred)) [TN8.2, cyclic disulfide peptide, GI-2 with Asp at position 19 changed to Glu] |  | improved peptide stability |

— patent publication US9156883B2, “Binding molecules for human factor VIII and factor VIII-like proteins” (DYAX CORP., priority 1999, dated 2015)
